Where “and” joins values, the source holds several entries; their conditions need not be identical. Equal values may be shown once. Read-outs that look alike come from different tables or passages of the source. Square brackets hold non-standard residues; d marks the D form. Ends that are not written are not given here. dCha = N[C@H](CC1CCCCC1)C(=O)O; dNle = CCCC[C@@H](N)C(=O)O; Tam = not defined here

What all share (experiment): cell-based or functional assay
The target in assay [1] is Tau40 P301L protein (human).
The target in assay [2] is T1, Ac-VQIINK-NH2 (SEQ ID NO: 23).
T1 sequence (peptide, N-terminal acetyl (Ac); C-terminal amide (NH2)): RLKIRW

Assay [3] addresses T2, Tau40 P301L protein (human).
T2 sequence: WIKIRR
This is another data set of the same source.

Assay [4] concerns the target Tau40 P301L protein (human). The source holds these as a separate data set.

B1: wdldvrw (peptide)
peptide: [dW][dD][dL][dD][dV][dR][dW]
For B1, in the assay with Tau40 P301L protein [1], the “IC50, Tau40 assay (ThT)” value was found to be 14 µM.

B2: urlkvrw (peptide)
peptide: [dNle][dR][dL][dK][dV][dR][dW]
Regarding B2, in assay [2], the VQIINK Inhibition IC50 is 2.29 µm.

B3: ararihw (peptide)
peptide: [dA][dR][dA][dR][dI][dH][dW]
On to B3, for which the “IC50, Tau40 assay (ThT)” value with Tau40 P301L protein [1] was determined as 12.6 µM.

B4: bkirihy (PEPTIDE ID NO: 249) (peptide)
peptide: [dCha][dK][dI][dR][dI][dH][dY]
In turn, B4 returned an IC50, Tau40 assay (ThT) in assay [3] of 1.09 µM.

B5: urlkvrw (PEPTIDE ID NO: 282) (peptide)
peptide: [dNle][dR][dL][dK][dV][dR][dW]
As to B5, in assay [3], the IC50, Tau40 assay (ThT) was found to be 1.63 µM.

B6: lkarihyh (peptide)
peptide: [dL][dK][dA][dR][dI][dH][dY][dH]
In the case of B6, the “IC50, Tau40 assay (ThT)” value with Tau40 P301L protein [1] stood at 10.4 µM.

B7: fkieieyh (peptide)
peptide: [dF][dK][dI][dE][dI][dE][dY][dH]
Take B7: the “IC50, Tau40 assay (ThT)” value with Tau40 P301L protein [1] was found to be 10.3 µM.

B8: RRRRRRRRR-GGSGG-rlkvrw (peptide)
peptide: RRRRRRRRRGGSGG[dR][dL][dK][dV][dR][dW]
With B8, in the assay with Tau40 P301L protein [4], the “IC50, Tau40 assay-Modified peptides (ThT)” value turned out to be 6.07 µM.

B9: wrbkvrw (peptide)
peptide: [dW][dR][dCha][dK][dV][dR][dW]
modifications: not fully specified; printed as wrbkvrw
Molecule B9 had a VQIINK Inhibition IC50 in assay [2] of 0.41 µm.

B10: lkbrihy (PEPTIDE ID NO: 252) (peptide)
peptide: [dL][dK][dCha][dR][dI][dH][dY]
For B10, the IC50, Tau40 assay (ThT) in assay [3] worked out at 1.16 µM.

B11: brlkvrw (PEPTIDE ID NO: 293) (peptide)
peptide: [dCha][dR][dL][dK][dV][dR][dW]
As for B11, in assay [3], the IC50, Tau40 assay (ThT) was determined as 1.82 µM.

B12: ukirihy (PEPTIDE ID NO: 203) (peptide)
peptide: [dNle][dK][dI][dR][dI][dH][dY]
In assay [3], B12 had an IC50, Tau40 assay (ThT) of 0.73 µM.

B13: Tam-RRRRRRRRR-GGSGG-rlkvrw (peptide)
peptide: Tam-RRRRRRRRRGGSGG[dR][dL][dK][dV][dR][dW]
modifications: reading uncertain; also: printed as Tam-RRRRRRRRR-GGSGG-rlkvrw
B13: the “IC50, Tau40 assay-Modified peptides (ThT)” value in the assay with Tau40 P301L protein [4] is 20.1 µM.

B14: ukirihy (peptide)
peptide: [dNle][dK][dI][dR][dI][dH][dY]
In the case of B14, the VQIINK Inhibition IC50 in assay [2] was found to be 1.12 µm.

B15: welkvew (peptide)
peptide: [dW][dE][dL][dK][dV][dE][dW]
As to B15, the “IC50, Tau40 assay (ThT)” value with Tau40 P301L protein [1] stood at 10 µM.

B16: lkuruhy (peptide)
peptide: [dL][dK][dNle][dR][dNle][dH][dY]
Turning to B16, the VQIINK Inhibition IC50 in assay [2] amounted to 0.87 µm.

B17: lkurihy (peptide)
peptide: [dL][dK][dNle][dR][dI][dH][dY]
In assay [2], B17 registered a VQIINK Inhibition IC50 of 1.5 µm.

B18: wrlkv (peptide)
peptide: [dW][dR][dL][dK][dV]
For the molecule B18, the “IC50, Tau40 assay (ThT)” value in the assay with Tau40 P301L protein [1] amounted to 15.1 µM.

B19: wrhkhrw (peptide)
peptide: [dW][dR][dH][dK][dH][dR][dW]
As to B19, in the assay with Tau40 P301L protein [1], the “IC50, Tau40 assay (ThT)” value was 19.2 µM.

B20: wrukurw (peptide)
peptide: [dW][dR][dNle][dK][dNle][dR][dW]
Molecule B20 yielded an IC50, Tau40 assay (ThT) in assay [3] of 7.21 µM. In assay [2], this molecule showed a VQIINK Inhibition IC50 of 1.73 µm.

B21: tiklvw (peptide)
peptide: [dT][dI][dK][dL][dV][dW]
Turning to B21, in the assay with Tau40 P301L protein [1], the “IC50, Tau40 assay (ThT)” value is 13.7 µM and 14.3 µM.

B22: lkrrihyh (peptide)
peptide: [dL][dK][dR][dR][dI][dH][dY][dH]
As to B22, the “IC50, Tau40 assay (ThT)” value in the assay with Tau40 P301L protein [1] turned out to be 15.4 µM.

B23: wrbkbrw (peptide)
peptide: [dW][dR][dCha][dK][dCha][dR][dW]
modifications: not fully specified; printed as wrbkbrw
In turn, B23 came in with an IC50, Tau40 assay (ThT) in assay [3] of 9.33 µM. For the same molecule, in assay [2], the VQIINK Inhibition IC50 worked out at 0.77 µm.

B24: wrekvrww (peptide)
peptide: [dW][dR][dE][dK][dV][dR][dW][dW]
For B24, the “IC50, Tau40 assay (ThT)” value in the assay with Tau40 P301L protein [1] came out at 19.3 µM.

B25: frlkirw (peptide)
peptide: [dF][dR][dL][dK][dI][dR][dW]
Regarding B25, in the assay with Tau40 P301L protein [1], the “IC50, Tau40 assay (ThT)” value is 11.7 µM and 12.2 µM.

B26: wrukvrw (peptide)
peptide: [dW][dR][dNle][dK][dV][dR][dW]
B26 gave a VQIINK Inhibition IC50 in assay [2] of 2.1 µm.

B27: feleiewh (peptide)
peptide: [dF][dE][dL][dE][dI][dE][dW][dH]
On to B27, for which, in the assay with Tau40 P301L protein [1], the “IC50, Tau40 assay (ThT)” value is 14.3 µM and 19.5 µM.

B28: lkiaihyh (peptide)
peptide: [dL][dK][dI][dA][dI][dH][dY][dH]
For the molecule B28, the “IC50, Tau40 assay (ThT)” value with Tau40 P301L protein [1] stood at 19.5 µM.

B29: lkirbhy (PEPTIDE ID NO: 228) (peptide)
peptide: [dL][dK][dI][dR][dCha][dH][dY]
B29 returned an IC50, Tau40 assay (ThT) in assay [3] of 0.9 µM.

B30: wrlkvr (peptide)
peptide: [dW][dR][dL][dK][dV][dR]
As for B30, the “IC50, Tau40 assay (ThT)” value with Tau40 P301L protein [1] amounted to 18.5 µM.

B31: […]-GGSGG-rlkvrw (peptide)
peptide: YGRKKRRQRRRGGSGG[dR][dL][dK][dV][dR][dW]
As to B31, the “IC50, Tau40 assay-Modified peptides (ThT)” value in the assay with Tau40 P301L protein [4] is 1.73 µM.

B32: lkiruhy (PEPTIDE ID NO: 267) (peptide)
peptide: [dL][dK][dI][dR][dNle][dH][dY]
B32 showed an IC50, Tau40 assay (ThT) in assay [3] of 1.43 µM.

B33: lkuruhy (PEPTIDE ID NO: 287) (peptide)
peptide: [dL][dK][dNle][dR][dNle][dH][dY]
B33 had an IC50, Tau40 assay (ThT) in assay [3] of 1.65 µM.

B34: wrlkbrw (peptide)
peptide: [dW][dR][dL][dK][dCha][dR][dW]
modifications: not fully specified; printed as wrlkbrw
B34: in assay [2], the VQIINK Inhibition IC50 came to 0.35 µm.

B35: wrbkvrw (PEPTIDE ID NO: 286) (peptide)
peptide: [dW][dR][dCha][dK][dV][dR][dW]
Regarding B35, in assay [3], the IC50, Tau40 assay (ThT) was found to be 1.65 µM.

B36: elkivw (peptide)
peptide: [dE][dL][dK][dI][dV][dW]
For B36, the “IC50, Tau40 assay (ThT)” value with Tau40 P301L protein [1] was 16 µM and 16.6 µM.

B37: wrakarw (peptide)
peptide: [dW][dR][dA][dK][dA][dR][dW]
As to B37, the “IC50, Tau40 assay (ThT)” value with Tau40 P301L protein [1] is 12.7 µM.

B38: wrlkurw (PEPTIDE ID NO: 308) (peptide)
peptide: [dW][dR][dL][dK][dNle][dR][dW]
In assay [3], B38 displayed an IC50, Tau40 assay (ThT) of 2.12 µM.

B39: lkiruhy (peptide)
peptide: [dL][dK][dI][dR][dNle][dH][dY]
In assay [2], B39 showed a VQIINK Inhibition IC50 of 2.07 µm.

B40: wrukvrw (PEPTIDE ID NO: 258) (peptide)
peptide: [dW][dR][dNle][dK][dV][dR][dW]
For the molecule B40, the IC50, Tau40 assay (ThT) in assay [3] came to 1.25 µM.

B41: brlkvrw (peptide)
peptide: [dCha][dR][dL][dK][dV][dR][dW]
modifications: not fully specified; printed as brlkvrw
For the molecule B41, in assay [2], the VQIINK Inhibition IC50 is 2.31 µm.

B42: wkvwgkvw (peptide)
peptide: [dW][dK][dV][dW]G[dK][dV][dW]
modifications: not fully specified (residue 5); printed as wkvwgkvw
Regarding B42, the “IC50, Tau40 assay (ThT)” value in the assay with Tau40 P301L protein [1] is 10.4 µM and 10.6 µM.

B43: wevqvew (peptide)
peptide: [dW][dE][dV][dQ][dV][dE][dW]
B43: the “IC50, Tau40 assay (ThT)” value with Tau40 P301L protein [1] was found to be 11.7 µM.

B44: arlkarw (peptide)
peptide: [dA][dR][dL][dK][dA][dR][dW]
For the molecule B44, the “IC50, Tau40 assay (ThT)” value with Tau40 P301L protein [1] turned out to be 11.2 µM.

B45: wkvpvryw (peptide)
peptide: [dW][dK][dV][dP][dV][dR][dY][dW]
As to B45, in the assay with Tau40 P301L protein [1], the “IC50, Tau40 assay (ThT)” value was 19 µM and 19.8 µM.

B46: Tam-[…]-GGSGG-rlkvrw (peptide)
peptide: Tam-YGRKKRRQRRRGGSGG[dR][dL][dK][dV][dR][dW]
modifications: reading uncertain
As for B46, the “IC50, Tau40 assay-Modified peptides (ThT)” value with Tau40 P301L protein [4] stood at 6.6 µM.

B47: wrlkurw (peptide)
peptide: [dW][dR][dL][dK][dNle][dR][dW]
In assay [2], B47 displayed a VQIINK Inhibition IC50 of 1.41 µm.

B48: lkurihy (PEPTIDE ID NO: 279) (peptide)
peptide: [dL][dK][dNle][dR][dI][dH][dY]
The molecule B48 yielded an IC50, Tau40 assay (ThT) in assay [3] of 1.59 µM.

B49: wrlkbrw (PEPTIDE ID NO: 307) (peptide)
peptide: [dW][dR][dL][dK][dCha][dR][dW]
In assay [3], B49 displayed an IC50, Tau40 assay (ThT) of 2.11 µM.

B50: lefelkyw (peptide)
peptide: [dL][dE][dF][dE][dL][dK][dY][dW]
As for B50, in the assay with Tau40 P301L protein [1], the “IC50, Tau40 assay (ThT)” value worked out at 19.7 µM.

B51: Tam-RRRRRRRRRR-GGSGG-wriwiryw (peptide)
peptide: Tam-RRRRRRRRRRGGSGG[dW][dR][dI][dW][dI][dR][dY][dW]
modifications: reading uncertain; also: printed as Tam-RRRRRRRRRR-GGSGG-wriwiryw
In the case of B51, the “IC50, Tau40 assay-Modified peptides (ThT)” value in the assay with Tau40 P301L protein [4] came out at 4.94 µM.

B52: lktrihy (peptide)
peptide: [dL][dK][dT][dR][dI][dH][dY]
Consider B52, for which, in the assay with Tau40 P301L protein [1], the “IC50, Tau40 assay (ThT)” value came to 12.5 µM.
